The target of experiment [1] is N-terminal His-tagged version of serum resistance associated protein (SRA) (aa 1-251), wild type (Trypanosoma brucei rhodesiense). Nature of the experiment: pull-down of in vitro synthesized [35S]-apoL-I mutant with His-SRA on Ni-NTA beads, scintillation counting.
The target in experiment [2] is I58Q/I62Q serum resistance associated protein (SRA), His-tagged (Trypanosoma brucei rhodesiense). Put plainly: pull-down of in vitro synthesized [35S]-apoL-I with mutant His-SRA on Ni-NTA beads, scintillation counting.

Consider “[35S]-apoL-I L345Y/L352A/Y354L point mutant, with C-terminal V5 tag (from UniProt O14791 16-398)”, for which, in experiment [1], the binding (%) came to 67%.

“[35S]-apoL-I truncated version ending at aa 342, with C-terminal V5 tag (from UniProt O14791 28-342)” gave a binding (%) in experiment [1] of 5%.

In turn, “[35S]-apoL-I truncated version ending at aa 355, with C-terminal V5 tag (from UniProt O14791 28-355)” came in with a binding (%) in experiment [1] of 24%.

In experiment [2], “in vitro synthesized [35S]-apoL-I, wild type, with C-terminal V5 tag (from UniProt O14791 16-398)” returned a binding (%) of 50%.

The values are drawn from patent publication US7585511.
